Source: patent publication US20160200799A1

Columns and labels:
[1] = target: Influenza virus A/California/7/2009pdm (H1N1pdm) (Influenza A virus A/California/7/2009pdm (H1N1pdm)); experiment: ELISA on coated viral particles
[2] = target: Influenza virus A/Panama/2007/1999 (H3N2) (Influenza A virus A/Panama/2007/1999 (H3N2)); experiment: ELISA on coated viral particles
[3] = target: Influenza virus A/Brisbane/59/2007 (H1N1) (Influenza A virus A/Brisbane/59/2007 (H1N1)); experiment: ELISA on coated viral particles
[4] = target: Influenza virus A/New Caledonia/20/1999 (H1N1) (Influenza A virus A/New Caledonia/20/1999 (H1N1)); experiment: ELISA on coated viral particles
[5] = target: Influenza virus A/California/7/2009pdm (H1N1pdm) (Influenza A virus A/California/7/2009pdm (H1N1pdm)); experiment: cell-based or functional assay
[6] = target: Influenza virus A/Panama/2007/1999 (H3N2) (Influenza A virus A/Panama/2007/1999 (H3N2)); experiment: cell-based or functional assay
[7] = target: Influenza virus A/Indonesia/5/2005/PR8-IBCDC-RG2 (H5N1) (Influenza A virus A/Indonesia/5/2005/PR8-IBCDC-RG2 (H5N1)); experiment: cell-based or functional assay
[8] = target: Influenza virus A/Brisbane/59/2007 (H1N1) (Influenza A virus A/Brisbane/59/2007 (H1N1)); experiment: cell-based or functional assay
[9] = target: Influenza virus A/Suita/1/2009pdm (H1N1 2009 pandemic) (Influenza A virus A/Suita/1/2009pdm (H1N1pdm)); experiment: cell-based or functional assay

Row | Binder | Binding activity (absorbance at 492 nm) [1] | Binding activity (absorbance at 492 nm) [2] | Binding activity (absorbance at 492 nm) [3] | Binding activity (absorbance at 492 nm) [4] | HI activity [5] | Neutralizing activity (%) at 100 µg/ml [6] | Neutralizing activity (%) at 250 µg/ml [6] | Neutralizing activity (%) at 100 µg/ml [7] | Neutralizing activity (%) at 250 µg/ml [7] | HI activity [8] | Neutralizing activity (%) at 100 µg/ml [8] | Neutralizing activity (%) at 250 µg/ml [8] | Neutralizing activity (%) at 100 µg/ml [9] | Neutralizing activity (%) at 250 µg/ml [9]
1 | Group 80 representative clone F083-373, Fab-cp3-type antibody (Fab, V domains shown) VH: QVQLVQSGADVKKPGSSVRVSCKASGRTFGNYAISWVRQAPGQGLEWMGGITPIFGAANYAQKFQGRVTISADLSTTMVYMDLSSLRSDDTAFYYCAGHPTYYYGSPMDYWGQGTLVTVSS VL: EIVLTQSPSSLSASVGDRVTITCRASQSIATYLNWYQQKPGKAPNLLIYAASNLQSGVPSRFSGSGSGTDFTLTISSLQPEDFATYVCLQSYSATLTFGGGTKVEIK | 0.17 | 0.13 | 1.31 | 1.39 |  |  |  |  |  |  |  |  |  | 
2 | Group 51 representative clone F083-302, Fab-cp3-type antibody (Fab, V domains shown) VH: QVQLVQSGAEVKKPGSSVKVSCEASGATFSSNAFSWVRQAPGQGPEWMGGIITMFRKAEYAQKFQGRVTITAGELGSTAYMEVRSLTFEDTAVYYCARHSGYHLIGYFDSWGQGTLVTVSS VL: QSVLTQPPSVSAAPGQKVTISCSGTTSNIGNNYVSWYQQLPGAAPKLLIYDNNKRPSGIPDRFSGSKSDTSATLGITGLQTGDEADYYCGTWVSSLSVWVFGGGTKLTVLG | 1.55 | 0.23 | 2 | 1.92 |  |  |  |  |  |  |  |  |  | 
3 | Group 65 representative clone F083-366, Fab-PP-type antibody (Fab, V domains shown) VH: QVQLVQSGSEVKKPGSSVKVSCKASRGIFSSYAISWVRQAPGQGLEWMGAVIPMFGTLKYAENFQGRITISADKSMSAAYMELSSLRSEDTAVYYCARNYYGSGTYFNDAFDIWGQGTMVTVSS VL: QSVLTQPPSGSGAPGQRVTISCTGGNSNIGAGYDVNGYQQLPGKAPKLLIYGNNNRPSGVPDRFSGSKSGTSASLAITGLQVEDEAHYYCQSYDNGLSGSVFGGGTQLTVLG |  |  |  |  | > 160 µg/mL | -13% | -6.8% | -0.8% | -3.9% | > 160 µg/mL | 96.1% | 98% | 13.5% | 19.2%
4 | Group 64 representative clone F083-301, Fab-PP-type antibody (Fab, V domains shown) VH: QVQLVQSGAEVKKPGSSVKVSCKASGGIFNSNAISWVRQAPGQGLEWMGGIIGIFGTANYAQKFQGRVTIAADQSTNTVFMELSSLTSEDTAVYFCARSRGYSFGYGTDYFDYWGQGTLVTVSS VL: DIVMTQSPSTLSASVGDRVTITCRASQSISSWLAWYQQAPGKAPKLLIYEASKLQSGVPSRFSATGSGTEFTLTIASLQPEDFAIYYCQHYEAYPFSFGPGTKLDVK |  |  |  |  | > 160 µg/mL | -2.7% | 7.5% | 40.6% | 47.1% | > 160 µg/mL | 86.2% | 92.1% | 83.6% | 81.3%
5 | Group 36 representative clone F082-243, Fab-PP-type antibody (Fab, V domains shown) VH: QVQLQQSGAEVKKPGSSVKVSCKASGGIFRKNAISWVRQAPGQGLEWMGGIIAIFGTANYAQKFQGRVTITADDSTNTVYMELTSLRYEDTAVYYCARGPNYYENYFDFWGQGTLVTVSS VL: EIVLTQSPSSLSASLRDTVTITCRTSQAITNYLAWYQQRPGKAPKLLIYAASVLQSGVPSRFSGSGSGTDFTLTISSLQPEDFATYYCQKYDSAPYTFGQGTKLEIK |  |  |  |  | > 160 µg/mL | 7.5% | -2.7% | 50.6% | 52.9% | > 160 µg/mL | 84.2% | 94.1% | 97.7% | 85.9%
6 | Group 2 representative clone F082-220, Fab-PP-type antibody (Fab, V domains shown) VH: QVQLVQSGAEVKKPGSSVKVSCKASGGIFRSNAVSWVRQAPGQGLEWMGGIIAIFGTPKYAQKFQGRVTITADESTSTVYMELSGLRYEDTAVYYCARGPNYYESYFDYWGQGTLVTVSS VL: DIVMTQSPPSLSASVGDRVTITCRASQGISNYLAWYQQKPGKAPKLLIFGASTLHSGVSSRFSGSGSGPDFTLTISSLQPEDAATYYCQKYHSAPLTFGGGTKVEMK |  |  |  |  | > 160 µg/mL | 3.4% | 34.2% | 90.6% | 97.1% | > 160 µg/mL | 100% | 100% | 85.3% | 97.7%
7 | Group 42 representative clone F083-249, Fab-cp3-type antibody (Fab, V domains shown) VH: QVQLVQSGSEVKKPGSSVKVSCKASGVTFSSYAISWVRQAPGQGLEWMGGISPMFGTTRYAQKFQGRVTITADESTRTGFMELSSLRSGDTAVYYCARSPTYYPGALDMWGQGTTVTVSS VL: DVVMTQSPSLLSASVGDRVTITCRASQAIANFVSWFQQKPGEAPKSLIHAASTLQGGVPPRFSGSGYGAVFTLTITNLQPEDFATYFCQQYNSLPFTFGPGTDVEVR | 2.38 | 1.15 | 3.02 | 3.13 |  |  |  |  |  |  |  |  |  | 
